Laboratory results published in patent CN106478818A (JIANGSU NOVOMAB BIOPHARMACEUTICALS INC, dated 2017).

T1: 重组TEM8蛋白 (recombinant TEM8 protein, 北京义翘神州生物技术有限公司) (UniProt Q9H6X2 33-321, limits assumed)
T1 construct: Bought recombinant protein coated on an ELISA plate; also called TEM8重组蛋白; 肿瘤内皮标记物8
T1 sequence (looked up): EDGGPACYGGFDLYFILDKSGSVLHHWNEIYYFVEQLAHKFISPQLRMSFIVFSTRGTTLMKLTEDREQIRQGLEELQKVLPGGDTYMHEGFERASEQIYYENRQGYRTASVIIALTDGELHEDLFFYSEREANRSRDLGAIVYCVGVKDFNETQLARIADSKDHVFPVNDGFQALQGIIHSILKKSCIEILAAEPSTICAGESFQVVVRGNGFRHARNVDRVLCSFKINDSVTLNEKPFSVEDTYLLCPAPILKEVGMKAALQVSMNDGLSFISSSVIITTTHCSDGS


Tests used:
[1] = molecular target: T2, TEM8 on TEM8稳定过表达细胞株 (CHO-K1 cells stably transfected with the full-length TEM8 gene) (human, UniProt Q9H6X2 33-564); experiment: cell-based binding on plated TEM8-overexpressing cells, anti-human-Eu, time-resolved fluorescence
T2 construct: also called TEM8过表达细胞; 细胞膜TEM8

[2] = molecular target: T1, 重组TEM8蛋白 (recombinant TEM8 protein, …); experiment: ELISA, TEM8 protein coated, antibody in 1:4 serial dilution, anti-human IgG-HRP

EC50 [1] [µg/mL] | EC50 [2] [µg/mL] | Binder
0.133 | 0.0324 | NMT802 (antibody, human IgG1, kappa, V domains shown, also called 单克隆抗体NMT802; NMT802抗体) VH: EVTLKESGPALVKPTQTLTLTCTFSGFSLSTSGMGVGWIRQPPGKALEWLAHIWWDDVKRYYPALKSRLTISKDTSKSQVVLTMTNMDPADTATYYCARIGYDWFPYWGQGTLVTVSS VL: DIQMTQSPSFLSASVGDRVTITCKASQNVGIAVAWYQQKPGKAPKLLIYSASNRYTGVPSRFSGSGSGTDFTLTISYLQSEDFATYYCQQYRSYPLTFGGGTKVEIKR
0.765 | 0.00544 | NMT803 (antibody, V domains shown, also called 单克隆抗体NMT803) VH: EVTLKESGPALVKPTQTLTLTCTFSGFSLSTSGMGVGWIRQPPGKALEWLAHIWWDDVKQYYPALKSRLTISKDTSKSQVVLTMTNMDPVDTATYYCARIGYDWFPYWGQGTLVTVSS VL: DIQMTQSPSFLSASVGDRVTITCKASQNVGIAVAWYQQKPGKAPKLLIYSASNRYTGVPSRFSGSGSGTDFTLTISCLQSEDFATYYCQQYRFKPLTFGGGTKVEIK
